Data on two proteins can be found in publication PMC5207774, “Atomic structures of fibrillar segments of hIAPP suggest tightly mated β-sheets are important for cytotoxicity” (eLife, 2017).

The data set concerns the molecule itself. Nature of the data set: crystal structure; MicroED (electron diffraction in a cryo electron microscope, 200 kV) from 3D peptide crystals only a few hundred nanometers thick; self-association of the peptide in the crystal.

B1: hIAPP segment 19–29 S20G (19-SGNNFGAILSS-29) (peptide)
peptide: SGNNFGAILSS
notes: human islet amyloid polypeptide (hIAPP), residues 19-29, with the early onset familial mutation S20G; numbers count on: the mature protein (37-residue hormone); Forms 3D nanocrystals and fibrils; the number of chains in the assembly is open-ended; also called spine segment 19–29 S20G; source: synthetic peptide: GenScript, greater than 98% purity
Regarding B1, the binding result was “binds”.

B2: hIAPP segment 15–25 WT (15-FLVHSSNNFGA-25) (peptide)
peptide: FLVHSSNNFGA
notes: human islet amyloid polypeptide (hIAPP), residues 15-25, wild type; numbers count on: the mature protein (37-residue hormone); Forms 3D nanocrystals and fibrils (striated ribbons); also called spine segment 15–25 WT; source: synthetic peptide: GenScript, greater than 98% purity
As to B2, the binding result is listed as “binds”.
